Results as given in PMC8280820, “Phospho‐regulation, nucleotide binding and ion access control in potassium‐chloride cotransporters” (The EMBO Journal, 2021).

B1: KCC1Δ19 (human potassium-chloride cotransporter KCC1, isoform A, N-terminally deleted, L20-S1085) (domain or fragment, UniProt Q9UP95 20-1085, looked up)
chain: LEGLSWVDYGERAELDDSDGHGNHRESSPFLSPLEASRGIDYYDRNLALFEEELDIRPKVSSLLGKLVSYTNLTQGAKEHEEAESGEGTRRRAAEAPSMGTLMGVYLPCLQNIFGVILFLRLTWMVGTAGVLQALLIVLICCCCTLLTAISMSAIATNGVVPAGGSYFMISRSLGPEFGGAVGLCFYLGTTFAAAMYILGAIEILLTYIAPPAAIFYPSGAHDTSNATLNNMRVYGTIFLTFMTLVVFVGVKYVNKFASLFLACVIISILSIYAGGIKSIFDPPVFPVCMLGNRTLSRDQFDICAKTAVVDNETVATQLWSFFCHSPNLTTDSCDPYFMLNNVTEIPGIPGAAAGVLQENLWSAYLEKGDIVEKHGLPSADAPSLKESLPLYVVADIATSFTVLVGIFFPSVTGIMAGSNRSGDLRDAQKSIPVGTILAIITTSLVYFSSVVLFGACIEGVVLRDKYGDGVSRNLVVGTLAWPSPWVIVIGSFFSTCGAGLQSLTGAPRLLQAIAKDNIIPFLRVFGHGKVNGEPTWALLLTALIAELGILIASLDMVAPILSMFFLMCYLFVNLACAVQTLLRTPNWRPRFKYYHWALSFLGMSLCLALMFVSSWYYALVAMLIAGMIYKYIEYQGAEKEWGDGIRGLSLSAARYALLRLEEGPPHTKNWRPQLLVLLKLDEDLHVKYPRLLTFASQLKAGKGLTIVGSVIQGSFLESYGEAQAAEQTIKNMMEIEKVKGFCQVVVASKVREGLAHLIQSCGLGGMRHNSVVLGWPYGWRQSEDPRAWKTFIDTVRCTTAAHLALLVPKNIAFYPSNHERYLEGHIDVWWIVHDGGMLMLLPFLLRQHKVWRKCRMRIFTVAQMDDNSIQMKKDLAVFLYHLRLEAEVEVVEMHNSDISAYTYERTLMMEQRSQMLRQMRLTKTEREREAQLVKDRHSALRLESLYSDEEDESAVGADKIQMTWTRDKYMTETWDPSHAPDNFRELVHIKPDQSNVRRMHTAVKLNEVIVTRSHDARLVLLNMPGPPRNSEGDENYMEFLEVLTEGLERVLLVRGGGREVITIYS
modifications: phosphoserine at S88, S734 and S1050 (by proteomics analysis); not phosphorylated at T926/T983
notes: KCC1 (SLC12A4), human, isoform A, residues L20-S1085; Cloned into the pHTBV vector with and without GFP; also called KCC1 (construct Δ19); Δ19-deleted human KCC1; not shown: twin-Strep, C-terminal, cleaved; His10, C-terminal, cleaved
B2: KCC3b-PM (human potassium-chloride cotransporter KCC3 isoform B, phospho-mimetic S45D/T940D/T997D, M1-S1099) (natural protein, UniProt Q9UHW9-2 1-1099, looked up)
chain: MPHFTVTKVEDPEEGAAASISQEPSLADIKARIQDSDEPDLSQNDITGEHSQLLDDGHKKARNAYLNNSNYEEGDEYFDKNLALFEEEMDTRPKVSSLLNRMANYTNLTQGAKEHEEAENITEGKKKPTKTPQMGTFMGVYLPCLQNIFGVILFLRLTWVVGTAGVLQAFAIVLICCCCTMLTAISMSAIATNGVVPAGGSYFMISRALGPEFGGAVGLCFYLGTTFAAAMYILGAIEIFLVYIVPRAAIFHSDDALKESAAMLNNMRVYGTAFLVLMVLVVFIGVRYVNKFASLFLACVIVSILAIYAGAIKSSFAPPHFPVCMLGNRTLSSRHIDVCSKTKEINNMTVPSKLWGFFCNSSQFFNATCDEYFVHNNVTSIQGIPGLASGIITENLWSNYLPKGEIIEKPSAKSSDVLGSLNHEYVLVDITTSFTLLVGIFFPSVTGIMAGSNRSGDLKDAQKSIPIGTILAILTTSFVYLSNVVLFGACIEGVVLRDKFGDAVKGNLVVGTLSWPSPWVIVIGSFFSTCGAGLQSLTGAPRLLQAIAKDNIIPFLRVFGHSKANGEPTWALLLTAAIAELGILIASLDLVAPILSMFFLMCYLFVNLACALQTLLRTPNWRPRFRYYHWALSFMGMSICLALMFISSWYYAIVAMVIAGMIYKYIEYQGAEKEWGDGIRGLSLSAARFALLRLEEGPPHTKNWRPQLLVLLKLDEDLHVKHPRLLTFASQLKAGKGLTIVGSVIVGNFLENYGEALAAEQTIKHLMEAEKVKGFCQLVVAAKLREGISHLIQSCGLGGMKHNTVVMGWPNGWRQSEDARAWKTFIGTVRVTTAAHLALLVAKNISFFPSNVEQFSEGNIDVWWIVHDGGMLMLLPFLLKQHKVWRKCSIRIFTVAQLEDNSIQMKKDLATFLYHLRIEAEVEVVEMHDSDISAYTYERDLMMEQRSQMLRHMRLSKTERDREAQLVKDRNSMLRLTSIGSDEDEETETYQEKVHMDWTKDKYMASRGQKAKSMEGFQDLLNMRPDQSNVRRMHTAVKLNEVIVNKSHEAKLVLLNMPGPPRNPEGDENYMEFLEVLTEGLERVLLVRGGGSEVITIYS
modifications: phosphorylated at S685, T727, S930 and Y1070 (by proteomics analysis; the paper says likely only in a subset of the particles for some sites); not phosphorylated at T106/T109
notes: KCC3 (SLC12A6), human, isoform B (KCC3b), residues M1-S1099 (printed length 1099); numbers count on: the B-isoform; Synthesized gene (GenScript, Twist Bioscience) subcloned into pHTBV with C-terminal twin-strep, 10-His and GFP; also called KCC3‐PM; KCC3b (construct PM); not shown: twin-Strep, C-terminal, cleaved; His10, C-terminal, cleaved

Molecular target: the molecule itself
Experiment: cryo-EM structure; single-particle cryo-EM of the purified transporter in digitonin, 150 mM NaCl, 20 mM HEPES pH 7.5 (KCC3b-PM also in KCl); homodimer

Protein	stoichiometry N
B1	2
B2	2
